Test results: PMC3100292 (PLoS ONE, 2011)

How the values were obtained:
[1] = molecular target: PDlim2 fused with the GAL4 DNA-binding domain (pBind-PDlim2) (human) (UniProt Q96JY6); assay: two-hybrid
YC-PDlim2 (human) = YC-PDlim2 (human) (UniProt Q96JY6); assay: split reporter (BiFC, NanoBiT)
[2] = molecular target: T1, PDlim2 PDZ domain (residues 1-83) (human, UniProt Q96JY6 1-83); assay: crystal structure; details: both partners purified
T1 construct: also called PDZ region (1-83) of PDlim2
T1 sequence (looked up): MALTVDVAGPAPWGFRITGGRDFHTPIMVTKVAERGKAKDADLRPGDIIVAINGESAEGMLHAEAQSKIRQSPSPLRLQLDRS

HN12-NS1 fused with the VP16 transcription activation domain (pACT-NS1) (natural protein)
relative luciferase activity (firefly/Renilla) [1]: 160 RLU

YN-HN12-NS1 wt (natural protein)
mean fluorescence intensity (MFI) (YC-PDlim2 (human)): 1120 | percent of cells in the high fluorescence zone (YC-PDlim2 (human)): 10.9%

B1: C-terminal hexapeptide of HN12-NS1 (TIESEV) (peptide)
peptide: TIESEV
binding result [2]: binds
